Measured values: a protein production outcome set (Wang et al. 2014)

Assay: label from the status in PepcDB records

Sequence | protein production
MAKKSTRTTPEDSQASTTDSAATSTASEATQAATSATDDQAEQTTAVDPTQQITDLKAQLDAKDDQLLRAQAEIVNMQNRNKKEQAALLKYDGQALAKDVLPVLDNLERALATPADDEAAQQLKKGVEMVYGHLQDALKKHGVTEVAAAGEKFDPNIHQAVQTVPVDDDHPADTVVQVLQRGYLLKDRTLRPAMVVVAQ | failed
MEAVVVEREAKGMKEIAIQEKDLTLQWRGNTGKLVKVRLKNTRAMEMWYNKQITEENIQEITTLNIIKNGKSLALEVYPEKSIYVKPNLGRINVPVFFIKTPINRGVFEEIFGETLKA | not failed
MTLTLLLLIFILISFISALTIIFITVKKGIFFNRLYLQSIIVCILFFTNWILYLSTFYALLPEKISEFLFLPIWFFLCILSFITFWREWRNNRVFSICIGFLSFISFLFVLFLLVLSGM | failed
MTSREDEIRDFLATHGYADWNRTPLAGDASSRRYQRLRSPTGAKAVLMDWSPEEGGDTQPFVDLAQYLRNLDISAPEIYAEEHARGLLLIEDLGDALFTEVINNDPAQEMPLYRAAVDLLIHLHDAQTPELARLDPETLSEMTRLAFSEYRYAILGDAAEDNRKRFEHRFAQILSAQLEGDMVFVHRDFHAQNLLWLPEREGLARVGVIDFQDAKLGHRAYDLVSLLQDARRDVPAQVEAQMIDHYIQATGVDESHFRSAYAVIAVQRNMRILGIFARLSQRFGKRHYIEFVPRVWAHFERGLAHPALASAAEEILNALPAPAPEVLERLRA | not failed
SLSSTQSVNSVLAPGNLRKVHHIALNVQDMQASRYFYGTILGLHELTDDEVPATLTELVASGKVANFITPDGTILDLFGEPELSPPDPNPEKTFTRAYHLAFDIDPQLFDRAVTVIGENKIAIAHGPVTRPTGRGVYFYDPDGFMIEIRCDPEAEG | not failed
MTGPLAAARSVAATKSMTAPTVDERPDIKKGLAGVVVDTTAISKVVPQTNSLTYRGYPVQDLAARCSFEQVAFLLWRGELPTDAELALFSQRERASRRVDRSMLSLLAKLPDNCHPMDVVRTAISYLGAEDPDEDDAAANRAKAMRMMAVLPTIVAIDMRRRRGLPPIAPHSGLGYAQNFLHMCFGEVPETAVVSAFEQSMILYAEHGFNASTFAARVVTSTQSDIYSAVTGAIGALKGRLHGGANEAVMHDMIEIGDPANAREWLRAKLARKEKIMGFGHRVYRHGDSRVPTMKRALERVGTVRDGQRWLDIYQVLAAEMASATGILPNLDFPTGPAYYLMGFDIASFTPIFVMSRITGWTAHIMEQATANALIRPLSAYCGHEQRVLPGTF | not failed
MATAALSAARPNRLSSASSDVPLHPLYLPTKLQFPSRKTQLWRSAAILLPTRRRCAPPRASSRADDSPPFDMSVETALKVLGVSEGASFDEILRAKKSILASRKDDPNAISQAEAAYDMLLMQSLNQRRAGKVVSNNIRYADVKSSNPLGTSTVTQWMKNPPVSVDMPSTSDLGIQAGVYGAMMVLTYVNGSSFESSGMPYAGADVPGLILASSFGASLYFMTKKKVKLGKAAALTAGGLVAGAVVGSAIETWLHVDVVPFLGLHSPAAVVSEFIVFSQFLVSLCLR | failed
MKTIKDWQINICLATYNGQKYLRQQLDSIIQQGYTDWICLIRDDGSTDDTVAIIKEYVNRDSRFIFINSNDDRKLGSHRSFYELVNYKKADFYVFSDQDDVWKENRLERYLEEAEKFNQELPLLVYSNWTSVDEKLTVLKEHNPATVIQEQIAFNQINGMVIMMNHELAKLWEYRQIGAHDSYVGTLAYAVGNVAYISDSTVLWRRQVGAESLNNYGRQYGVATFWQMINTSFDRASLIFAQVSDKMSLERKLFFSRFIELKNANLMRRIYLLSKLKLRRKSLKETVAMTILLLTGYGKPKALEHHHHHH | not failed
MNIMRTAMLLAFMTALFMGVGYLVGGSNGMVIALLMAGGLNFFSYWNSDKIVLRMYGAREVDQHSSPVYYKIVSDLARRASLPQPKVYIIDNAQPNAFATGRNPQNAAVAASTGLLNQLSAEEVAGVMAHELAHIEHRDTLTMTLTATIAGAISMLGNFAFFMGGQRHSSENSHSTGAIGGLLALFVAPFAAMLVQMAISRTREYAADRRGAEICGNPLWLASALSKIAGGGHTVYNEEAEHNPATAHMFIINPLRGEGADSLFSTHPATANRIAALRRQAEEMKGARVENMGWNEKIGLHKKSSDFRDLNSGAQTSVFNEESTVQRIKKRPSWLRYGDSKRPRS | failed
MLGHNKISVIIPAYNEERRIGNVLKGIPDFVDEVIVVDDGSSDGTSKVAMELGATVIRLNKNSGKGAAMREGLKISTGDIIVFMDADGQHNPKEIYRLVKPIVEGRADLVIGRRIITRGKRPMSRKISNFITTRLITLKTRKKILDTQSGFRAIRREFVPVIESDRYEVETEVLIKAIKKGARILEVPISTRYDVETGHFKMIDIFRFLFALIKYLEHHHHHH | failed
MVADESITVTVEVKNTGVVAGAEVVQLYLHDKKASVSRPIKELKGFAKVYLAPGESKRVSISLNKRDLSFWDVHTNDWLAEVGEFEVLLGTSLDNIRQKATFTYQNKYEQLEHHHHHH | failed
MKFLVENLNGSSFELEVDYRDTLLVVKQKIERSQHIPVSKQTLIVDGIVILREDLTVEQCQIVPTSDIQLEVSSDDDNPNHNDCDQKPQTEQSPALPLVSAEEYFERQDWPLTAEELRQIYSYRPEHEG | failed
MEIASQEDHDMPIPLNTTFGGGGSHGHMIHHHDHHAANSAPPTHNNNNTTQPPPMPLHGNGHGNNYDHHHHQDPHHVGYNAIIKKPMIKYKECLKNHAAAMGGNATDGCGEFMPSGEDGSIEALTCSACNCHRNFHRKEVEGELAATAMSPYHQHPPHRKLMLNHQKIRSAMPHQMIMPIGVSNYRYMHNNSESEDFMEEDGVTTASRSLPNLPYNQKKRFRTKFTPEQKEKMLSFAEKVGWKIQRQEDCVVQRFCEEIGVKRRVLKVWMHNNKIHFSKKNNINLEDNDNEKINNLNNVDLSGNNDMTKIVP | failed
MASVNSPIRTFLKPLLFKLFGKNVYARFQFYAKIKDIDKRLVEEKEMELLPYFLNKDSNSIDVGANYAYYTVGMSKLSKKVFAYEPIPFTYKVCKMLLKHYNCANVDLFAQGVGEKNEIKRFNVPVVDFGGISAGQAHMADRNNELKGKEQHYQFSKNEAYDCTVVSLDAAITDITPISFVKMDIEGAEYFALKGMQQLLLKHKPVILIEINPFFLTGFDIKENDLKNLIASHAYKTYIYSAELKKLQAFECAYFESNYILIPEEKIAQFNAIIE | failed
MLKRCLSPLTLVNQVALIVLLSTAIGLAGMAVSGWLVQGVQGSAHAINKAGSLRMQSYRLLAAVPLSEKDKPLIKEMEQTAFSAELTRAAERDGQLAQLQGLQDYWRNELIPALMRAQNRETVSADVSQFVAGLDQLVSGFDRTTEMRIETVVLVHRVMAVFMALLLVFTIIWLRARLLQPWRQLLAMASAVSHRDFTQRANISGRNEMAMLGTALNNMSAELAESYAVLEQRVQEKTAGLEHKNQILSFLWQANRRLHSRAPLCERLSPVLNGLQNLTLLRDIELRVYDTDDEENHQEFTCQPDMTCDDKGCQLCPRGVLPVGDRGTTLKWRLADSHTQYGILLATLPQGRHLSHDQQQLVDTLVEQLTATLALDRHQERQQQLIVMEERATIARELHDSIAQSLSCMKMQVSCLQMQGDALPESSRELLSQIRNELNASWAQLRELLTTFRLQLTEPGLRPALEASCEEYSAKFGFPVKLDYQLPPRLVPSHQAIHLLQIAREALSNALKHSQASEVVVTVAQNDNQVKLTVQDNGCGVPENAIRSNHYGMIIMRDRAQSLRGDCRVRRRESGGTEVVVTFIPEKTFTDVQGDTHE | failed
MEYLFLRRKRTTATSERQKTLLFKAAERQWKEEFAGKETDIRKVDCNIYKGILYQLEIRQVFLDTSLSLKKLSALLETNQTYLSNVVNKYFGCNLKELVNTYRVEYAKELLCSRRCALTELPCSCGFASKSAFYSAFSRIVGVSPLSYQTQERRRHHLQAVNLEHHHHHH | failed
MDPLEDVLTLLKTRSHLSASLVAGGRWAVRFDAPRVVKFNAVRRGTCQLEVDGIDEPIDLAEGDCYLLTRPRSFTLRSDPETAPVDGGAVFARAEDGIARAGQGDDVFLIGGGFSFGTRAQELLLDRLPPIVHVPADTPHAETVQWALTAIDQELTHRPMASTLIAEHLAVIMLVHVLRLHLERAPHAVSGWLAGLADPVVATALTCLHRDPARSWTVADLADTAAVSRSTLAARFKATVGQGPLEYLTRWRIELAARQLREGNATLASIAHSVGYGSESALSVAFKRVLGMPPGDYRKHPTMP | failed
MKVLIDTNVILDVLLNRASFVQDAIAVLELTCGNIQAYVSASAITDIYYIAYKELRDKIRVKNLIKTLLQIITVAGISDKEIMSAIDSDWADFEDSLQNAVAESHDCSMIITRNISDFNGSNLQIISPKDFIVQFTHLEHHHHHH | failed
SVILFDRTFISPTEISDIYTKDAIGMKKADYLRKKLTSIFPEIEVQNLPDTINISNYLNDSDFDIIIVNSEHFNIKLLSELNDLLYKISTPYMYAWIEGSRGYIGPLIYPPDTSCFNCYLTWRFFGTFMEDKIKAINNYGSSGYIFPLDKIIGALTVLEVCKAIGSLGTPLFNKIILVEVLPTLTIRYIPILKDPKCNVCEG | failed
MNLLIKINPVTRIIALMVLTTPLLLSLDVMSAAIALVATIILAPFAGVTWKMLLKRGWMLFLMAPVAALSMALYGRPDGKEYFSFLLIHVTDNSLALAAAIGLRVLAIGLPVVVLIARIDPTDLGDGLAQLLKLPERFVIGAVAGSRLMTLFREDWYSMSRARRARGIADQGKIKHFFTMTFGLLVLSLRRGSKLATAMEARGFGRTTGRTWARESTVGARDLVLILVCAAISAIALTVSIQTGFFKFLGT | failed
MTTKFVVGYDGSAASRRALDFAMERAKAGGASIIVAHVLEWSPYSFLTPTEIEERHKRRAEEMARAETAILAPLKAELAGSGVEIETAIRYGQVADTLCDIATKSGAAQIFIARQGESGLAARVFGSVAGTLAQYAPVPCTIVP | failed
MKSVGQALENQGRVPRNTNDELIQMILADAQVAEFIKTHQLSQREINISMSKFNQFLIERQKFKNKDSQYIAKGYEPILVMNEGYADVSYLETRELIEAQKKQAISDRINLVNLPKSYRNIRMTDFDINNESRMKAMSQLLDFVETYPSYNHKGLYLYGDMGVGKSYLMAAMARELSERKGVSTTLLHFPSFAIDVKNAISSGTVKDEIDAVKSVPILILDDIGAEQATSWVRDEILQVILQHRMLEELPTFFTSNYSFNDLERKWANIKGSDETWQAKRVMERVRYLAIEFHLEGPNRR | failed
MVVLMLCAALLVIVGCPETALGKGLRRWLVDWPAKVLAGLTPARLVLLLALLAVSTLVVVLFEVEGAILLGMALPEVAVWFMAFDVAVFIDLFAAIALAANGARLKGLGDRIKALPRRFGRGLVARVRRSGQGRQGGRRFRRPGSGATKSEDGDAGWSGAAQPGALAWA | failed
MNGDRTGLGSTRLGRIAIAGGKQLLGKINSARKNFPMKIFLLLLGFYTANALATILGQTGDWDVLVAGIVVAAIEGIGMLMYKKPSSSMFSGKLQSFVVFMNFWKAGVCLGLFVDAFKLGS | failed
MKASCSSFTCQSADGKHFLGRTYDEYGDISANKVSIIPRGYEISLTFMGNKENNKQIVKYAIVGMNVDMFDTPFLTEGMNEHGLMISLLFFPHFTQYNSKSNAEYDVNLGLLLPFVLGKCKNIEEAVALLQKINPVDEPESQMELPCHYLISDKTGESIVVEPLADGLKIYRNEMGVLTNSPTYEWHKINLRNYLGISNLAKETQVVNGYKIEELGEGTGYLGIPGDYTPVSRFVRLAFSKNYMPEPQNEIDAVNKMFNIFETVDVPEGVIYTPPLRTPYHEKTLCTSVMCSESLKYYFSTSTNCRICCVDLNKAMNNNSKELINIDIPFEQDILTLN | failed
